{"source": "the NTF2 design screens of Basanta et al. (2020)", "test": "protease stability score; higher = more stable; yeast display proteolysis, trypsin and chymotrypsin;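 also: log10 excess protease needed over predicted unfolded state with 0 meaning unfolded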", "data": [{"sequence": "DEQVLRVLNEYLEDLKRNNEERLRKLADPNVKFQVGDKTLHGMEDAVNHWRHLLDHMELRIDITEVNVSNGRAVVNARASQNVNGRPNDNEVQIVAEAHNGTLKFVEWRFDPDRQRKIDS", "values": [{"measurement": "protease stability score", "value": 0.114}]}, {"sequence": "DEQVQKQFKEAMRNREKGDKDKVVENFDKHVKVSVGDRTYHGMDDIARRQNEHMKEIRVEYRDVKMSVDNGKIVIHVRQQLEDNGEPREFSYTAEANATNGRIKSYRVDMDPEQVREVDR", "values": [{"measurement": "protease stability score", "value": -0.215}]}, {"sequence": "DEQWLNRLNRVFEHNNEEDLIKNMDPNVRVEIGDKRVRGRHKVKEALDRLKEEADHLQLKSVHVQGDKVSATMEMVVNGKHVQMTVTIEFTNGRIKNQRYKATDEKDKKVINDIMG", "values": [{"measurement": "protease stability score", "value": 0.34}]}, {"sequence": "DERAADAIERLLKAMKDNDPSELSKQADENVHFDVGEKKYHGMETYARTVAKERHDAEQTYRLKDYRVDENHVSFNMRVVQTNNGKPVDVEAILRANVKGDKVKSMRIDEHK", "values": [{"measurement": "protease stability score", "value": -0.23}]}, {"sequence": "DERAAQTAVDLMKTNNERDRVKMADENVRYNVGDKTVHGREEWKKFAEQQRTSIDHMKIDDVKHHNGRIQVDMVVVVNGKKFRFVLQATVHNGKFKYFQRKVRDDEIRKILRRINK", "values": [{"measurement": "protease stability score", "value": 0.235}]}, {"sequence": "DERAEELLQRWMDAQRTGNPDEFVKLLDPNARYVVGDKEIHGSEQFKTHWQRQQDEMNVKVDVEDVKFSGNKISVRFHIEVDVNGRPLTDTATATWDLHNGRIKRQVYHLDPEFLRQVDS", "values": [{"measurement": "protease stability score", "value": 0.936}]}, {"sequence": "DERAEELVKRIFEALHDGDPQKFVNNIDPNARVNIGDEEIHGRKDAEREIQKRLEHSRVRFDLRSFRVSNGRAEATANVQENHNGRPQTNTVKATFVIHDGRVKEINMQHDG", "values": [{"measurement": "protease stability score", "value": -0.101}]}, {"sequence": "DERAHEAIENWLRAEQTNDPKQVKDNADPNARVHVGDKVLHGMEEIQDELKRRIDQARYHIKDFHIDIQGEKAQIDREYTFSINGRPMSNTVRQEAKVDNGKIKEVNFRVSEELEDQEHK", "values": [{"measurement": "protease stability score", "value": -0.242}]}, {"sequence": "DERAHSHVEDFFRNLKSGNEDEIRKLLDPNARIKVGDKVIHGRDDAKRYVQQQKREMRMEYDVKTVDAQGDKIQVQVNVTQQHNGRPVQYQQNLHMTVENGDIHTVNYQMDTRIERVQES", "values": [{"measurement": "protease stability score", "value": -0.231}]}, {"sequence": "DERAIRTVTRFWTAIKHNDPDKAVENVDPNARFRIGDREVDGDEDAKQWIEEMKRHMHIDIRSLRARDQGDKIEINFKFVISYNGRPQSQTQHATARVHNGKIHEVDINFDDQKKRELDS", "values": [{"measurement": "protease stability score", "value": -0.006}]}, {"sequence": "DERAKEQMKNFQQAVSEGDPDQFRELMDKDARMVIGDQQLHGREKMMHQWQRLTRRIRREVKSVDVQVRGDTAELDIHFEQRKDGQPTKNSAVLEAVVHNGKVKELRVKNKR", "values": [{"measurement": "protease stability score", "value": 0.078}]}, {"sequence": "DERAKEVFKELIEAWKHGNEDQVREMADKDARFTVGDKEIHGREEWAKQIRERHEKIRFEMRIRHVHVNGDRLSIEADFSVDINGQPLSYRMKIELRIHNGKIKELVFQVSEEDKNKQKR", "values": [{"measurement": "protease stability score", "value": 0.576}]}, {"sequence": "DERALDVARQLVEALNTGDPETANNLLDKNVHIRVGDKRIHGRKQHSRTVDREKKEIRRHLEKVTNKSKGDKADVDIQFQQTHNGRPTSNQMKMIVEARNGKVKRMSVREHG", "values": [{"measurement": "protease stability score", "value": -0.469}]}, {"sequence": "DERALDVVRKYQEALNSNDPEHLVELIDPNAKLQVGDKTIHGREQLHHEAQKRKDEMRLNVEVHDLRDRGSTVQIHARRSYSHNGRPRSERYVLHATIRGDKIDKMHFQTDS", "values": [{"measurement": "protease stability score", "value": -0.243}]}, {"sequence": "DERALKMIREFEEIRSKGDERQLSEQVDKDADFHVGDKRLTGMDRVASELVQEVRDWRVSVDIKRMSISNGSLDIDAQVRFSHNGKPVTVHLDLKIIVHNGTIKQIEITNQP", "values": [{"measurement": "protease stability score", "value": 0.698}]}, {"sequence": "DERALRNWRRLETAVNTNNPDKVQKLMDKDVKYEVGDKTIRGRRHAAQSLVERVNKIHLDIKSVTATDSGDNVRIRLDAVRNHNGRPHRDVLNITVKADNGKIVSVKTTKDG", "values": [{"measurement": "protease stability score", "value": 0.001}]}, {"sequence": "DERAQDLVRQWLENVHTGDPSKLREQMDPNAHVVIGDRTFTGRENFAETVHHHLQDQRVQYDTMRIENEGEKARFRYKATVQHNGQPSKHQATAQLTLHNGRIQSLQMESTQ", "values": [{"measurement": "protease stability score", "value": -0.162}]}, {"sequence": "DERAREIVTRYFTALERGDPDKARKLADKDVRISVGDTQINGHDQMARTIDKQKKHMRIRFEDVKIHVNNGRADVKFHAVFEHNGKPERKNRTIIFNVHDGRIKEIQAQDDE", "values": [{"measurement": "protease stability score", "value": 0.321}]}, {"sequence": "DERARERVEELLQVENDGDPDKVMEYFDPNAKAEIGDKHIHGRETFRHRLERTNKEMRYHLEVEHIRVNGNNVEMTFRAETEHNGQPSHDRNHAVLHITNGRIKYKRVKRDG", "values": [{"measurement": "protease stability score", "value": 0.178}]}, {"sequence": "DERARNVLKRIMHALRENNEEEFKKNADPNVRIHVGDKQYHGREDAARKIMTTLKSMKERIDVKSVDVEGDQIELHADVQVEENGQPDTKEIRVHADIQGDKMRSMKVDDTK", "values": [{"measurement": "protease stability score", "value": -0.308}]}, {"sequence": "DERASELAEKIIKALHTGNPQEVQKLVPPDVHVVYGDKNIHGRENAKKYWDQVLRNWRLNIQDFRIDADGDNVTVELHAEFNVNGQPIQARATVTVNVKNGRVKELNVQLPHEDLRRIRQ", "values": [{"measurement": "protease stability score", "value": 0.619}]}, {"sequence": "DERAVEVLERFLEAQKTGNEEDLKKQVDPNARIQIGDKQVHGMDQAARNLVDTYEEIQIDFRIDRMSAHNGNVTVEAHQQINVNGRPFRNSVTMHAYLQGDKAKEINYRVPEKFENEVKS", "values": [{"measurement": "protease stability score", "value": -0.326}]}, {"sequence": "DERAVKRMEKFIKVLINGNPDDLKEYLDENVKVDVGDKRIHGRETFMNEAEKDKRQMSVSLKEVRVDAHNGRLQVNARVHINHNGTPRDKEYVMQAILHNGRIKSMRVQSTG", "values": [{"measurement": "protease stability score", "value": 0.835}]}, {"sequence": "DERDADEIAKVFVHNNPKDIERMVDEDVRIIIGDFEVQGREEARKYAEQLEKHIDHNHVRDYRVEGNKVTLDVNVVVNGRSLTFVVHITMHNGHVKEIRVQFTSPEDQKVFKEVVG", "values": [{"measurement": "protease stability score", "value": 0.719}]}, {"sequence": "DERDADKVRQLYENEQHGDEHKVMQLVDKDVRFQYGDHEVQGREQQKKLVKERQDKARFELKSVDARDHNGRVRVDVRWVAEVNGRPHEDTIEVVVEIHNGKVKHVEFRVDPDHWTEVMQ", "values": [{"measurement": "protease stability score", "value": 0.152}]}]}
